Measurements: publication PMC6127106 (2018)
Blank lines part the entries; values can stand above or below the binder they belong to.

Target: purified human platelet αIIbβ3 integrin (human, UniProt P05106 27-788)
Experiment: 2D off-rate, biomembrane force probe adhesion frequency

- koff: 8.41 s⁻¹
B1: human fibrinogen (ligand)
chain 1: GPRVVERHQSACKDSDWPFCSDEDWNYKCPSGCRMKGLIDEVNQDFTNRINKLKNSLFEYQKNNKDSHSLTTNIMEILRGDFSSANNRDNTYNRVSEDLRSRIEVLKRKVIEKVQHIQLLQKNVRAQLVDMKRLEVDIDIKIRSCRGSCSRALAREVDLKDYEDQQKQLEQVIAKDLLPSRDRQHLPLIKMKPVPDLVPGNFKSQLQKVPPEWKALTDMPQMRMELERPGGNEITRGGSTSYGTGSETESPRNPSSAGSWNSGSSGPGSTGNRNPGSSGTGGTATWKPGSSGPGSTGSWNSGSSGTGSTGNQNPGSPRPGSTGTWNPGSSERGSAGHWTSESSVSGSTGQWHSESGSFRPDSPGSGNARPNNPDWGTFEEVSGNVSPGTRREYHTEKLVTSKGDKELRTGKEKVTSGSTTTTRRSCSKTVTKTVIGPDGHKEVTKEVVTSEDGSDCPEAMDLGTLSGIGTLDGFRHRHPDEAAFFDTASTGKTFPGFFSPMLGEFVSETESRGSESGIFTNTKESSSHHPGIAEFPSRGKSSSYSKQFTSSTSYNRGDSTFESKSYKMADEAGSEADHEGTHSTKRGHAKSRPVRDCDDVLQTHPSGTQSGIFNIKLPGSSKIFSVYCDQETSLGGWLLIQQRMDGSLNFNRTWQDYKRGFGSLNDEGEGEFWLGNDYLHLLTQRGSVLRVELEDWAGNEAYAEYHFRVGSEAEGYALQVSSYEGTAGDALIEGSVEEGAEYTSHNNMQFSTFDRDADQWEENCAEVYGGGWWYNNCQAANLNGIYYPGGSYDPRNNSPYEIENGVVWVSFRGADYSLRAVRMKIRPLVTQ
chain 2: GHRPLDKKREEAPSLRPAPPPISGGGYRARPAKAAATQKKVERKAPDAGGCLHADPDLGVLCPTGCQLQEALLQQERPIRNSVDELNNNVEAVSQTSSSSFQYMYLLKDLWQKRQKQVKDNENVVNEYSSELEKHQLYIDETVNSNIPTNLRVLRSILENLRSKIQKLESDVSAQMEYCRTPCTVSCNIPVVSGKECEEIIRKGGETSEMYLIQPDSSVKPYRVYCDMNTENGGWTVIQNRQDGSVDFGRKWDPYKQGFGNVATNTDGKNYCGLPGEYWLGNDKISQLTRMGPTELLIEMEDWKGDKVKAHYGGFTVQNEANKYQISVNKYRGTAGNALMDGASQLMGENRTMTIHNGMFFSTYDRDNDGWLTSDPRKQCSKEDGGGWWYNRCHAANPNGRYYWGGQYTWDMAKHGTDDGVVWMNWKGSWYSMRKMSMKIRPFFPQQ
chain 3: YVATRDNCCILDERFGSYCPTTCGIADFLSTYQTKVDKDLQSLEDILHQVENKTSEVKQLIKAIQLTYNPDESSKPNMIDAATLKSRKMLEEIMKYEASILTHDSSIRYLQEIYNSNNQKIVNLKEKVAQLEAQCQEPCKDTVQIHDITGKDCQDIANKGAKQSGLYFIKPLKANQQFLVYCEIDGSGNGWTVFQKRLDGSVDFKKNWIQYKEGFGHLSPTGTTEFWLGNEKIHLISTQSAIPYALRVELEDWNGRTSTADYAMFKVGPEADKYRLTYAYFAGGDAGDAFDGFDFGDDPSDKFFTSHNGMQFSTWDNDNDKFEGNCAEQDGSGWWMNKCHAGHLNGVYYQGGTYSKASTPNGYDNGIIWATWKTRWYSMKKTTMKIIPFNRLTIGEGQQHHLGGAKQVRPEHPAETEYDSLYPEDDL

- koff: 7.85 s⁻¹
B2: C-terminal biotinylated recombinant human apoA-IV (apoA-IV-GGC) (ligand)
chain: EVSADQVATVMWDYFSQLSNNAKEAVEHLQKSELTQQLNALFQDKLGEVNTYAGDLQKKLVPFATELHERLAKDSEKLKEEIGKELEELRARLLPHANEVSQKIGDNLRELQQRLEPYADQLRTQVSTQAEQLRRQLTPYAQRMERVLRENADSLQASLRPHADELKAKIDQNVEELKGRLTPYADEFKVKIDQTVEELRRSLAPYAQDTQEKLNHQLEGLTFQMKKNAEELKARISASAEELRQRLAPLAEDVRGNLRGNTEGLQKSLAELGGHLDQQVEEFRRRVEPYGENFNKALVQQMEQLRQKLGPHAGDVEGHLSFLEKDLRDKVNSFFSTFKEKESQDKTLSLPELEQQQEQQQEQQQEQVQMLAPLESGGC
modifications: maleimide-PEG2-biotin on the C-terminal cysteine of the GlyGlyCys linker
